Assay results: patent US20200139362A1, “Proto-Antigen-Presenting Synthetic Surfaces, Activated T Cells, and Uses Thereof” (Berkeley Lights, Inc., priority 2018, published 2020)
Square brackets hold non-standard residues; d marks the D form. Ends that are not written are not given here.

Key:
HLA-A*02:01 [1] = target: T1, HLA-A*02:01 (Homo sapiens, UniProt P04439, D140Y/D185E/D98H/E176V/E277Q/G131W/G231S/I119V/I121R/I166T/I218V/L300P/L318F/N151K/N90K/P208A/P217A/Q86G/Q94H/R138H/R169H/T345S); assay: Peptide switching (exchange) on peptide-HLA-A*02:01 complex, anti-DNP antibody flow cytometry; assay type: binding; details: 20 micromolar peptide, 1 micromolar HLA-A*02:01 with DNP-labelled initial peptide LMYAKRAFV, 1 mM Glycl-Methionine, room temperature 4 hours; relative to control peptide […] set as 100%
Description: To test binding of Immunogenic and Non-Immunogenic peptides to an MHC Class I complex, a peptide-HLA-A*02:01 complex with an initial peptide LMYAKRAFV (SEQ ID NO: 4) in the peptide binding groove was purchased. The initial peptide included a dinitrophenyl (DNP) moiety conjugated to the lysine at position 5. Two peptide antigens were then tested for their ability to bind to the MHC Class I complex: SLYSYFQKV (SEQ ID NO: 5) derived from SLC45A2 and SLLPIMwQLY (SEQ ID NO: 6) derived from TCL1. The peptides were resuspended in DMSO to 5 mg/mL. The peptides were then further diluted ten-fold in PBS. […]
Samples of unswitched peptide-MHC and switched peptide-MHC were then captured on Streptavidin-coated DynaBeads (ThermoFisher). […] The peptide-MHC beads were then stored at 4° C. until they were analyzed for peptide exchange.
To quantify peptide exchange, a FITC-conjugated anti-DNP antibody specific for the DNP-conjugated initial peptide was added to a sample of each captured peptide-MHC. […] The staining for pre-assembled peptide and intact pHLA complexes were detected by Flow Cytometry on a FACSCelesta with High-Throughput Sampler (BD Biosciences). […] Approximately 5,000 bead events were recorded for each sample. The Median Fluorescence Intensity (MFI) in the APC and FITC channels of each sample was then recorded. […]

HLA-A*02:01 [2] = target: T1, HLA-A*02:01; assay: Peptide binding and stability of pMHC complexes under culture conditions (W6/32 antibody, flow cytometry); details: pMHC on Streptavidin DynaBeads in T Cell Culture Media at 37° C.; exponential decay fit of APC MFI
Description: To assess the stability of the pMHC Class I-peptide antigen complexes under the conditions that are used to culture T Cells, pMHC Class I complexes were first bound to beads. Biotinylated HLA-A*02:01 complexes loaded with either SLYSYFQKV (SEQ ID NO: 5) or SLLPIMwQLY (SEQ ID NO: 6) peptides were diluted to 0.83 micrograms/mL in Assay Buffer (PBS with 2 mM EDTA and 0.1% Bovine Serum Albumin). To 0.6 mL of the pMHC solutions in microcentrifuge tubes, 10^7 Streptavidin-coated DynaBeads (M-280, ThermoFisher) were added. The beads were mixed in the pMHC solution for 4 minutes at 2,000 rpm on a ThermoMixer (Eppendorf). The pMHC-beads were then captured on a magnetic rack, and the solution containing unbound pMHC removed by aspiration. 1 mL of Assay Buffer was added to the tubes, and then aspirated. The beads were then resuspended in 0.1 mL of Assay Buffer. The beads were then stored at 4° C. until use. […]
Antibody binding to the beads was then detected on a FACSCelesta with High-Throughput Sampler (BD Biosciences). […] Approximately 25,000 bead events were recorded for each sample. The Median Fluorescence Intensity (MFI) in the APC channel for the pHLA-beads in each sample was then recorded. […] The half-lives for the pHLA complexes were then calculated from the fitted decay constant.

Substance | percent peptide switching (HLA-A*02:01 [1]) | half-life of peptide-HLA-A*02:01 complex (HLA-A*02:01 [2])
SLLPIMwQLY (SLLPIM[dW]QLY) [TCL1-derived peptide, non-immunogenic peptide antigen derived from TCL1] | about 90% | about 0.5 hours
SLYSYFQKV (SLC45A2-derived peptide) [immunogenic peptide antigen derived from SLC45A2] | about 99% | about 17 hours
